Substrate in the data set: CCCCC/C=C\C/C=C\CCCCCCCC(=O)O[C@H]1CC[C@@]2(C)C(=CC[C@H]3[C@@H]4CC[C@H]([C@H](C)CCCC(C)C)[C@@]4(C)CC[C@@H]32)C1
Nature of the data set: purified protein, by the assay type. It counts as biochemical, Candida rugosa. Particulars: other: 37° C., pH 7.0, Trx-LIP4 29 nM, average of three independent experiments. The text has this: Construction of expression vectors The E. coli expression vectors pET23a-LIP4-S19 and pET23a-trx-LIP4-S19 were constructed as described in Tang et al. (2000) Protein Exp. Purif. 20: 308-313. Open-reading frames of LIP1, LIP2, LIP3, and LIP5 without the leader sequence were obtained by reverse transcription-polymerase chain reaction (RT-PCR). See Longhi et al. (1992) Biochim. Biophy. […] The chimeric DNA sequences were constructed by replacing the SphI(184)-BstXI(304) restriction DNA fragment of LIP4 with the corresponding fragments of LIP1, LIP2, LIP3, or LIP5, respectively. The resulting sequences encode mature chimeric C. rugosa lipases, denoted as TrX-LIP4/lid1, TrX-LIP4/lid2, TrX-LIP4/lid3, and TrX-LIP4/lid5, and were confirmed by DNA sequencing.
Preparation of recombinant LIP4 from E. coli. E. coli strain AD494(DE3) (Novagen, Milwaukee, Wis.) harboring recombinant plasmid was grown overnight at 37° C. in Luria-Bertani (LB) broth supplemented with 50 μg/mL ampicillin and 15 μg/mL kanamycin. The cells were then diluted 20-fold into fresh medium and incubated with shaking at 25° C. After adding IPTG to give a final concentration of 0.05 mM, the cells were incubated at 10° C. until OD600 reached 1.0.
Purification of recombinant LIP4. After induction, the AD494(DE3) transformants were harvested by centrifugation at 4000 g and 4° C. for 10 min. The cell pellet was resuspended in TE buffer (20 mM Tris-HCl and 2.5 mM EDTA, pH 8.0). The cells were disrupted with a sonicator, and the soluble fractions of the cell lysates were then collected by centrifugation at 15,000 g at 4° C. for 30 min. The soluble fractions were concentrated by ultrafiltration on a 10,000 molecular weight cut-off membrane. These samples were then applied onto a DEAE-Sepharose CL-6B (Pharmacia Biotech) column equilibrated with TE buffer. Recombinant lipases were eluted using a linear gradient of 0 to 100 mM (NH4)2SO4 over 5 column volumes.
The eluted proteins were then applied to a Butyl-Sepharose 4 Fast Flow (Pharmacia Biotech) hydrophobic interaction column. The column was washed with 5 bed volumes of TE buffer plus 1 mM and then 4 mM CHAPS. Bound proteins were then eluted with 5 bed volumes of TE buffer containing 30 mM CHAPS. The eluted samples were dialyzed against TE buffer and stored in a storage buffer (60 mM KCl, 10 mM Tris-HCl, 1.25 mM EDTA, 1% Triton X-100, and 17% glycerol, pH 7.5) at −20° C. Protein concentrations in the fractions were measured with the Bio-Rad assay kit, and esterase activity was determined using p-nitrophenyl butyrate as a substrate. The molecular masses of the purified recombinant lipases and a commercial lipase (Lipase Type VII, Sigma L1754) were determined by SDS-PAGE analysis. […]

The values below come from patent publication US7655453B2, “Recombinant Candida rugosa lipases” (Academia Sinica, priority 2001, dated 2010).

One may read the Vmax as the rate approached at saturating substrate. The kcat is the maximal rate divided by the concentration of active sites. As a reminder, the kcat/Km is the second-order rate constant that governs catalysis at low substrate concentration.

B1: Candida rugosa lipase 4 (LIP4), recombinant, E. coli thioredoxin fused to the N-terminal (Trx-LIP4) (Diutina rugosa) (protein)
chain: SMNSRGPAGRLGSVPTATLANGDTITGLNAIINEAFLGIPFAQPPVGNLRFKPPVPYSASLNGQKFTSYGPSCMQMNPLGNWDSSLPKAAINSLMQSKLFQAVLPNGEDCLTINVVRPSGTKPGANLPVMVWIFGGGFEVGGSSLFPPAQMITASVLMGKPIIHVSMNYRVASWGFLAGPDIKAEGSGNAGLHDQRLGLQWVADNIAGFGGDPSKVTIFGESAGSMSVMCQLLWNDGDNTYNGKPLFRAAIMQSGAMVPSDPVDGPYGTQIYDQVVASAGCGSASDKLACLRSISNDKLFQATSDTPGALAYPSLRLSFLPRPDGTFITDDMFKLVRDGKCANVPVIIGDQNDEGTVFALSSLNVTTDAQARQYFKESFIHASDAEIDTLMAAYPSDITQGSPFDTGIFNAITPQFKRIAAVLGDLAFTLPRRYFLNHFQGGTKYSFLSKQLSGLPVIGTHHANDIVWQDFLVSHSSAVYNNAFIAFANDLDPNKAGLLVNWPKYTSSSQSGNNLLQINALGLYTGKDNFRTAGYDALFTNPSSFFV
With B1, the Km is 104 ± 10 10^−3 mM, the maximal velocity (Vmax) turned out to be 2.9 µmol/min/mg, the kcat was determined as 3.37 ± 0.135 s⁻¹ and the kcat/Km worked out at 32300 ± 2320 M⁻¹ s⁻¹.
